Our source for the t1/2 values is patent US20260034230A1 (Regeneron, published 2026).

Test [1] concerns the target T1, REGN2054 (mf TFRC ecto-mmh): monomeric monkey (cyno) Tfrc ectodomain (C89-F760) with C-terminal … (monkey (cyno, Macaca fascicularis), UniProt H9EXL1 89-760).
T1 construct: range 89-760; also called mfTFR-mmh; mfTfR-mmh
The experiment in a line: SPR Biacore, IgG captured by anti-hFc, 25 C. How it is done: (§1) Biacore binding kinetics assays were conducted for the interaction of 32 anti-human TfR IgG1 monoclonal antibodies from CHO supernatants with TfR reagents at 25° C.
(§2) Equilibrium dissociation constants (KD) for the interaction of anti-TfR monoclonal antibodies with human and fascicularis monkey TfR ecto domain recombinant proteins were determined using a real-time surface plasmon resonance (SPR) based Biacore S200 biosensor. All binding studies were performed in 10 mM HEPES, 150 mM NaCl, 3 mM EDTA, and 0.05% v/v surfactant Tween-20, pH 7.4 (HBS-EP) running buffer at […]. The Biacore CM5 sensor surface was first derivatized by amine coupling with a monoclonal mouse anti-human Fc antibody (REGN2567) followed by a step to capture anti-TfR monoclonal antibodies in CHO conditioned media. […] The dissociation of TfR bound to anti-TfR monoclonal antibodies was monitored for 3 minutes in HBS-EP running buffer. At the end of each cycle, the anti-TfR monoclonal antibodies capture surface was regenerated using a 12-see injection of 20 mM H₃PO₄. The association rate (ka) and dissociation rate (kd) were determined by fitting the real-time binding sensorgrams to a 1:1 binding model with mass transport limitation using Scrubber 2.0c software. The dissociation equilibrium constant (KD) and dissociative half-life (t %) were calculated from the kinetic rate constants as: […]

Test [2] addresses T2, REGN2431 (hmm.hTfRC): monomeric human Tfrc ectodomain (C89-F760) with N-terminal hexahistidine-myc-myc tag (human, UniProt P02786 89-760).
T2 construct: also called hmm.hTfR(C89-F763); hTFR-mmh
The experiment in a line: SPR Biacore, IgG captured by anti-hFc, 25 C. How it is done:
as §1, §2

T1 sequence (chain, as listed by the source): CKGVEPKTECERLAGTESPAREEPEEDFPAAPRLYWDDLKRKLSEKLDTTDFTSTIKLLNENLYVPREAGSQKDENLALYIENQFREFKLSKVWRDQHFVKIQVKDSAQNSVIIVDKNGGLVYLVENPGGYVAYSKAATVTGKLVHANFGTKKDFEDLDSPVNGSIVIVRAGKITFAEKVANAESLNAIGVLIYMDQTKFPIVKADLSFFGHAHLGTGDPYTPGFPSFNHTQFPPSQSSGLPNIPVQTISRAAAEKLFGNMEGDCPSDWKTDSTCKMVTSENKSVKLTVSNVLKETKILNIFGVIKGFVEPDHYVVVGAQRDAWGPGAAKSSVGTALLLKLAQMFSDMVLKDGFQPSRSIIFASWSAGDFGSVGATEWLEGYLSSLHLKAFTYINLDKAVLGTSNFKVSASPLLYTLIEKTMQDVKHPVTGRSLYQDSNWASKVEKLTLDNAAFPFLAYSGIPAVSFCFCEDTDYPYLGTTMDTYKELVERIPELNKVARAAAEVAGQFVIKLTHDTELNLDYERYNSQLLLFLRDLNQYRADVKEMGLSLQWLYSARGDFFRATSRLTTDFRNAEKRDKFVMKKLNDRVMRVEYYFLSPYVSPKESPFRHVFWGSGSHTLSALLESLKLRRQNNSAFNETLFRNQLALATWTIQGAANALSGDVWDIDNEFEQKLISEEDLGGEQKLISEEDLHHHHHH
T2 sequence (P02786 other isoform, or with tags, fused parts or gaps): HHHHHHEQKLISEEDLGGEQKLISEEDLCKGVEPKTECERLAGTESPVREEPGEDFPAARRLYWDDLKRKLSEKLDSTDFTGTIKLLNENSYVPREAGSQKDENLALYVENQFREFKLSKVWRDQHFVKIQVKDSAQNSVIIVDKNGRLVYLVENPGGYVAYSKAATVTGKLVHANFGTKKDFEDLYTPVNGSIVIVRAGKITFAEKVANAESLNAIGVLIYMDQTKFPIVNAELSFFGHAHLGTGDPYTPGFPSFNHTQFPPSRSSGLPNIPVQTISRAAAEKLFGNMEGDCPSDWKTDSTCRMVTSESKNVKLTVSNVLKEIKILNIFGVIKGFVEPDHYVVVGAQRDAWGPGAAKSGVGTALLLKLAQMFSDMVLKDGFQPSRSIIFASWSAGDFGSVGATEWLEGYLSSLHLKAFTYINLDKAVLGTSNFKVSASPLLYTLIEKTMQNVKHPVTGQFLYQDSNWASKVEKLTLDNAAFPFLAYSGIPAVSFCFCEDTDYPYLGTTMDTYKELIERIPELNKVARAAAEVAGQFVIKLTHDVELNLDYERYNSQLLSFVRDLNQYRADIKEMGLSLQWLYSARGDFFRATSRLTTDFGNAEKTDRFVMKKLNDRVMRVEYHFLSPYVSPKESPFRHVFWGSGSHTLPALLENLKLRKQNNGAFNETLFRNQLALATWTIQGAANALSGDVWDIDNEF

B1: 12844B anti-hTfR monoclonal antibody (bivalent IgG1) (antibody, V domains shown)
VH: EVQLVESGGSVVRPGGSLRLSCEASGFTFDDYGMSWVRQDPGKGLEWVSGINWNGDRTNYADSVKGRFIISRDNAKNSVYLQMNSLRAEDSALYHCARDQGLGVAATLDYWGQGTLVTVSS
VL: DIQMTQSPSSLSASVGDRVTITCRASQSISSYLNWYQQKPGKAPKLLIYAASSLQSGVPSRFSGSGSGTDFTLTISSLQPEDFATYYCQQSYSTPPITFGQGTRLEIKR
notes: hIgG1/kappa
For the molecule B1, the results for the t1/2 in test [1] and in test [2] were 15.7 min and 95 min, respectively.

B2: 12808B anti-hTfR monoclonal antibody (bivalent IgG1) (antibody, V domains shown)
VH: QLQLQESGPGLVKPSETLSLTCTVSGESISSNTYYWGWIRQPPGKGLEWIGSIDYSGTTNYNPSLKSRVTISVDTSRNHFSLRLRSVTAADTAVYYCAREWGNYGYYYGMDVWGQGTTVTVSS
VL: DIQMTQSPSSLSASVGDRVTINCRASQGIRNDLGWYQQKPGKAPKRLIYAASSLQSGVPLRFSGSGSGTEFTLTINNLQPEDFATYYCLSHNSYPWTFGQGTKVEIKR
notes: hIgG1/kappa
B2: the t1/2 in test [1] was 25.5 min; in test [2], 108 min.

B3: 12802B anti-hTfR monoclonal antibody (bivalent IgG1) (antibody, V domains shown)
VH: QVQLVESGGGLVKPGGSLRLSCAASGFTFSDYFMSWIRQAPGKGLEWVSYISSTGSTINYADSVKGRFTISRDNVKNSLYLQMTSLRVEDTAVYYCTRDNWNYEYWGQGTLVTVSS
VL: EIVMTQSPATLSVSPGERATLSCRASQSVSINLAWYQQKPGQAPRLLIFVASTRATGIPARFSGSGSGTEFTLTISSLQSEDFATYYCQQYDIWPYTFGQGTKLEIKR
notes: hIgG1/kappa
On to B3, for which the values for the t1/2 in test [1] and in test [2] were 21.8 min and 395 min, respectively.

B4: 12801B anti-hTfR monoclonal antibody (bivalent IgG1) (antibody, V domains shown)
VH: EVQLLESGGALVQPGGSLRLSCAASGFTFTSYAMHWVRQAPGKGLEWVSSIRGSGGGTYSADSVKGRFTISRDNSRDTLYLQMNSVRAEDTAVYYCARSHDYGAFDFFDYWGQGTLVTVSS
VL: DIQMTQSPSSLSASVGDRVTITCRASQGIRTDLGWYQQKPGKAPKRLIYAASSLQSGVPSRFSGSGSGTEFTLTISSLRPEDFATFYCLQYNSYPLTFGGGTKVEIKR
notes: hIgG1/kappa
For the molecule B4, the t1/2 stood at 17.7 min in test [1] and 276 min in test [2].

B5: 12848B anti-hTfR monoclonal antibody (bivalent IgG1) (antibody, V domains shown)
VH: EVQLVESGGGLVQPGRSLTLSCAASGFTFDNFGMHWVRQGPGKGLEWVSGLTWNSGVIGYADSVKGRFTISRDNAKNSLYLQMNSLRPEDTALYYCAKDIRNYGPFDYWGQGTLVTVSS
VL: not shown
notes: hIgG1/kappa; also called H1H12848B; REGN17515
Consider B5, for which the t1/2 in test [1] was 12 min; in test [2], 232 min.

B6: 12847B anti-hTfR monoclonal antibody (bivalent IgG1) (antibody, V domains shown)
VH: EVQLVESGGGLVQPGRSLRLSCAASGFTFDDYAMNWVRQAPGKGLEWVSGISWSSGSMDYADSVKGRFTISRDNAKNSLYLQMNSLRTEDTALYYCAKAREVGDYYGMDVWGQGTTVTVSS
VL: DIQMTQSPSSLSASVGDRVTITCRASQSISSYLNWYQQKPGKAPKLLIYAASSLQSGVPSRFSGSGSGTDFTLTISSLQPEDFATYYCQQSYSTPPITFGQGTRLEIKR
notes: hIgG1/kappa; also called H1H12847B; REGN17514
Regarding B6, the t1/2 in test [1] turned out to be 34.7 min; in test [2], 67.6 min.

B7: 12843B anti-hTfR monoclonal antibody (bivalent IgG1) (antibody, V domains shown)
VH: EVQLVESGGGLVQPGGSLRLSCAASGFTFNIFEMNWVRQAPGKGLEWISYISSRGTTTYYADSVRGRFTISRDNAKNSLYLQMNSLRAEDTAVYYCARDYEATIPFDFWGQGTLVTVSS
VL: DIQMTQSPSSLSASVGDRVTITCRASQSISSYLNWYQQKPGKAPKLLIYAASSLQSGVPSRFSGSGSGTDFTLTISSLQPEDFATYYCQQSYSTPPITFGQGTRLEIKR
notes: hIgG1/kappa; also called H1H12843B; REGN17512
B7: the t1/2 in test [1] stood at 9.8 min; in test [2] it was 68.8 min.

B8: 12799B anti-hTfR monoclonal antibody (bivalent IgG1) (antibody, V domains shown)
VH: QITLKESGPTLVKPTQTLTLTCTFSGFSLSTSGVGVVWIRQPPGKALEWLALIYWNDHKRYSPSLGSRLTITKDTSKNQVVLTMTNMDPVDTATYYCAHYSGSYSYYYYGLDVWGQGTTVTVSS
VL: DIQMTQSPSSVSASVGDRVTITCRASQGIASWLAWYQQKPGKAPELLIYAASSLQGGVPSRFSGSGSGTDFTLTISSLQPEDFAIYYCQQANYFPWTFGQGTKVEIKR
notes: hIgG1/kappa; also called H1H12799B; REGN17508
As to B8, the t1/2 is 71.2 min in test [1] and 174 min in test [2].

B9: 12835B anti-hTfR monoclonal antibody (bivalent IgG1) (antibody, V domains shown)
VH: EVQLVESGGGLIQPGGSLRLSCEASGFTFRNYEMNWVRQAPGKGLEWVSYISSSGNMKDYAESVKGRFTISRDNVKNSLQLQMNSLRVEDTAVYYCARDEFPYGMDVWGQGTTVTVSS
VL: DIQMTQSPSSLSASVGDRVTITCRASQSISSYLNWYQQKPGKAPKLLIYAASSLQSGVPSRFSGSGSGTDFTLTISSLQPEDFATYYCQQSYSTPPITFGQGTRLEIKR
notes: hIgG1/kappa; also called H1H12835B; REGN17509
As to B9, the t1/2 came out at 6.9 min in test [1] and 27.7 min in test [2].
